From patent US20040235717

How the values were obtained:
mtAR S790A = mtAR S790A (UniProt P10275)
mtAR S210A = mtAR S210A (UniProt P10275)
Sequence of mtAR S210A (P10275 whole entry, looked up, stated change not applied): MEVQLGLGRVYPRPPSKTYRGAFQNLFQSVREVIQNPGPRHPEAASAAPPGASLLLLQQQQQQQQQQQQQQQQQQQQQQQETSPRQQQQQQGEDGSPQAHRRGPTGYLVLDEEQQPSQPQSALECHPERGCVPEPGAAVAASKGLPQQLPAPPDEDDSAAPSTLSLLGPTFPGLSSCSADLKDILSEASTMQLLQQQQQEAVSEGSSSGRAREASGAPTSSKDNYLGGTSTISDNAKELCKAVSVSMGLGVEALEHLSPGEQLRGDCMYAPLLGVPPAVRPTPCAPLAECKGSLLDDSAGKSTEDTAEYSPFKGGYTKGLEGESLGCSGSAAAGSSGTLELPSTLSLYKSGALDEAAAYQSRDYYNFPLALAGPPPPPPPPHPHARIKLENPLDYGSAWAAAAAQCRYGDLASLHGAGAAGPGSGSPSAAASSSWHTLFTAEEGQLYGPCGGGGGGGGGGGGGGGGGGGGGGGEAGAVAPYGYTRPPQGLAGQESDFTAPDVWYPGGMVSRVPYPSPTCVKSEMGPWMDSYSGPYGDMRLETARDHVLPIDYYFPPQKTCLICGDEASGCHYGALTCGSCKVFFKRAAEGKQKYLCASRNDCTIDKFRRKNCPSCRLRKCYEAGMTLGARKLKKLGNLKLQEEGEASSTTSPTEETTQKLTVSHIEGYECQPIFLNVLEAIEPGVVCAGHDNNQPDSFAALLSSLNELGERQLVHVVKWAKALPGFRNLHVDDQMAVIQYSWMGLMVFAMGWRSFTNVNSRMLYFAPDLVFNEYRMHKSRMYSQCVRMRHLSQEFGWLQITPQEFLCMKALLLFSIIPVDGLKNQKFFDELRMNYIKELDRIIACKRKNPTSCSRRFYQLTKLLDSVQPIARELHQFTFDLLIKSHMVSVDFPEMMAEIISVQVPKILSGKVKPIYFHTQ

Sequence of mtAR S790A (P10275 whole entry, looked up, stated change not applied): as above

Q: Akt/PKB (endogenous, LNCaP cells) was tested. Which “in vitro phosphorylation of immunoprecipitated AR by Akt” value (mtAR S790A) did it give?
A: the degree of Akt phosphorylation of mtARS210A and mtARS790A, as compared to wtAR, was reduced significantly

Q: And the “in vitro phosphorylation of immunoprecipitated AR by Akt/PKB” value (mtAR S790A)?
A: the degree of phosphorylation of ARS210A and ARS790A by Akt/PKB, as compared to wtAR, was reduced significantly

Q: What about the “in vitro phosphorylation of immunoprecipitated AR by Akt” value (mtAR S210A) of the same substance?
A: the degree of Akt phosphorylation of mtARS210A and mtARS790A, as compared to wtAR, was reduced significantly

Q: And the “in vitro phosphorylation of immunoprecipitated AR by Akt/PKB” value (mtAR S210A)?
A: the degree of phosphorylation of ARS210A and ARS790A by Akt/PKB, as compared to wtAR, was reduced significantly
